Results: PMC1933414, “Role of RGM coreceptors in bone morphogenetic protein signaling” (Journal of Molecular Signaling, 2007)

B1: RGMa-Fc (ectodomain of RGMa fused to the Fc portion of human IgG) (Fc fusion)
chain: CKILKCNSEFWSATSGSHAPASDDTPEFCAALRSYALCTRRTARTCRGDLAYHSAVHGIEDLMSQHNCSKDGPTSQPRLRTLPPAGDSQERSDSPEICHYEKSFHKHSATPNYTHCGLFGDPHLRTFTDRFQTCKVQGAWPLIDNNYLNVQVTNTPVLPGSAATATSKLTIIFKNFQECVDQKVYQAEMDELPAAFVDGSKNGGDKHGANSLKITEKVSGQHVEIQAKYIGTTIVVRQVGRYLTFAVRMPEEVVNAVEDWDSQGLYLCLRGCPLNQQIDFQAFHTNAEGTGARRLAAASPAPTAPETFPYETAVAKCKEKLPVEDLYYQACVFDLLTTGDVNFTLAAYYALEDVKMLHSNKDKLHLYERTRDLPGRA

Columns and labels:
Test in all cases: SPR; BIAcore 3000; BMP2 (350 RU) or BMP12 (1000 RU) amine-coupled on CM5 chips; soluble RGM injected at 0.1-100 nM, 30 uL/min, 500 s, 25°C; HBS-EP pH 7.4 (0.15 M NaCl); global analysis with BIAevaluation 3.2; double referencing
[1] = target: Human BMP2 (bone morphogenetic protein 2) (human) (UniProt P12643)
[2] = target: Human BMP12 (bone morphogenetic protein 12) (human) (UniProt Q7Z4P5)
[3] = target: T1, Human BMP2 (bone morphogenetic protein 2) (human, UniProt P12643 283-396); conditions: both partners purified
T1 construct: bone morphogenetic protein 2, human; purified recombinant protein; also called recombinant human BMP2; source: produced and purified as previously described [37]

[4] = target: T2, Human BMP12 (bone morphogenetic protein 12) (human, UniProt Q7Z4P5 322-450); conditions: both partners purified
T2 construct: bone morphogenetic protein 12 (GDF7), human; the dimer peak from size exclusion was used; also called recombinant human BMP12; source: E. coli, purified (SP-Sepharose cation exchange, size exclusion; dimer peak)
T2 sequence (looked up): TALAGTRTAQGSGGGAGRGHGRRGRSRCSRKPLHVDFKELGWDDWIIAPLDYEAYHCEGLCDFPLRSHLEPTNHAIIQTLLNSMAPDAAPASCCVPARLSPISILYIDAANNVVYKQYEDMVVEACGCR

Human BMP2 (bone morphogenetic protein 2) (human), sequence (P12643 283-396): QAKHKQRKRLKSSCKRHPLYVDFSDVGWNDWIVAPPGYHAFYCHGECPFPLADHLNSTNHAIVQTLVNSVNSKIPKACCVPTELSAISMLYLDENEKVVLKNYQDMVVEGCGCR
T1 sequence (P12643 283-396): as above

Row | Molecule | Kd [1] [nM] | koff [1] [s⁻¹] | kon [1] [M⁻¹ s⁻¹] | Kd [2] [nM] | koff [2] [s⁻¹] | kon [2] [M⁻¹ s⁻¹] | Kd [3] [nM] | koff [3] [s⁻¹] | kon [3] [M⁻¹ s⁻¹] | Kd [4] [nM] | koff [4] [s⁻¹] | kon [4] [M⁻¹ s⁻¹]
1 | RGMb-Fc (ectodomain of RGMb fused to the Fc portion of human IgG) (from UniProt Q6NW40 46-413) (Fc fusion) | 5.43 | 0.000256 | 47200 | 2.06 | 0.000118 | 56900 |  |  |  |  |  | 
2 | RGMc-Fc (ectodomain of RGMc fused to the Fc portion of human IgG) (from UniProt Q6ZVN8 36-400) (Fc fusion) | 4.22 | 0.000363 | 86100 | 1.22 | 9.22e-05 | 75600 |  |  |  |  |  | 
3 | B1 |  |  |  |  |  |  | 2.46 | 0.000364 | 148000 | 1.41 | 0.000179 | 127000
